The source of these data is article PMC11516053, “Genomic Amplification of TBC1D31 Promotes Hepatocellular Carcinoma Through Reducing the Rab22A‐Mediated Endolysosomal Trafficking and Degradation of EGFR” (Advanced Science, 2024).

This experiment addresses T1, SFB-TBC1D31 (human, UniProt Q96DN5-1 1-1066).
T1 construct: In the SFB pull-down it was left on the streptavidin beads; in the GST pull-down it was eluted with biotin; source: HEK293T, transfected, purified (streptavidin-conjugated beads, eluted with biotin)
T1 sequence (looked up): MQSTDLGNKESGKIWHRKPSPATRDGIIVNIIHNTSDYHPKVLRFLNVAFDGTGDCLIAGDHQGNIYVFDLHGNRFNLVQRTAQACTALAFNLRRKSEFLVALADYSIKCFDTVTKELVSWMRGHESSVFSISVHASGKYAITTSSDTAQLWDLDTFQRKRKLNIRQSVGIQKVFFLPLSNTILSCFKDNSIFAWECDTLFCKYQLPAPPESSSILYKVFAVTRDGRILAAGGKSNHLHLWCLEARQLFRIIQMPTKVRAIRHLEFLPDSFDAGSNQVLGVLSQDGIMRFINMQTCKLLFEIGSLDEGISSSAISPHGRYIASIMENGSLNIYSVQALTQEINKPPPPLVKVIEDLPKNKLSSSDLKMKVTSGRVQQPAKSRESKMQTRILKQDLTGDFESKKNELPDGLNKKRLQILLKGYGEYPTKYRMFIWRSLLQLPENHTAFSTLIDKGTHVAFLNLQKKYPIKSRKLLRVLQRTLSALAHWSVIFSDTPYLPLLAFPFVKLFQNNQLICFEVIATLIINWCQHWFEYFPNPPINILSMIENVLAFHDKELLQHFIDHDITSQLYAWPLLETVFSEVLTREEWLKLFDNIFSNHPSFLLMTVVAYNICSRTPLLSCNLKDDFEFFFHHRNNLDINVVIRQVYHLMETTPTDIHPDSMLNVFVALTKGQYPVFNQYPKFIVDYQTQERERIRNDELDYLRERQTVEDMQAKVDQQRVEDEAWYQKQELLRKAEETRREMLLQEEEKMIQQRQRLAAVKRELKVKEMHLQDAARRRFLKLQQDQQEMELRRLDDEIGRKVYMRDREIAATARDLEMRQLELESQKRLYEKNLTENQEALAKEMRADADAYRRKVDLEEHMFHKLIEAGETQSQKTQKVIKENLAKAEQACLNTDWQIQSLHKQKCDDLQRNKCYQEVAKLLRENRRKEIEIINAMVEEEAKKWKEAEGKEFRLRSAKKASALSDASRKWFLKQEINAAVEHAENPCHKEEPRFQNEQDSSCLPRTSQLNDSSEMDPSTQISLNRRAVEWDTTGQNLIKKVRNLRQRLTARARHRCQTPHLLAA
As to the kind of experiment: pull-down; GST pull-down in vitro: GST-Rab22A on Glutathione-Sepharose incubated with eluted SFB-TBC1D31 in NETN buffer, 3 h, 4 °C; detection by Flag antibody. To be noted: both partners purified.

B1: GST-Rab22A (natural protein, human, UniProt Q9UL26 1-194, looked up)
chain: MALRELKVCLLGDTGVGKSSIVWRFVEDSFDPNINPTIGASFMTKTVQYQNELHKFLIWDTAGQERFRALAPMYYRGSAAAIIVYDITKEETFSTLKNWVKELRQHGPPNIVVAIAGNKCDLIDVREVMERDAKDYADSIHAIFVETSAKNAININELFIEISRRIPSTDANLPSGGKGFKLRRQPSEPKRSCC
notes: On glutathione beads in the GST pull-down; eluted with reduced glutathione for the SFB pull-down; source: E. coli BL21, purified (Glutathione-Sepharose)
As for B1, the binding result is listed as “binds”.
